How the values were obtained:
[1] = test system: GLI-dependent firefly luciferase activity in Shh-LIGHT2 cells; test: GLI-dependent luciferase assay in Shh-L2 cells; type: cell-based, mouse; conditions: for enhancement of transcriptional activity of overexpressed GLI1: cotransfected with GLI1, Shh-L2 cells; for enhancement of transcriptional activity of overexpressed GLI2: cotransfected with GLI2, Shh-L2 cells
Protocol: Cells were transfected by the expression constructs or respective empty vectors using Polyethylenimine transfection agent (PEI) (Inbio) and as described in [28]. We used 0.25 μg of cDNA per 1 cm^2 of plate surface area for transfections. After 3 h of transfection HEK293, NIH3T3 and Cos1 cells were propagated in the normal growth medium for 48 h. Prior the further analysis the cells were washed twice with PBS. Post-transfectional Shh-L2 cells were grown in the normal growth medium for 24 h and for additional 24 h in the Light medium containing 0.25% FBS, washed once with PBS, lysed in Passive Lysis Buffer (Promega, Madison Wis., USA) (70 ul per well of 24-well plate format) and subjected to luciferase assay.
Luciferase assay was performed as previously described. Briefly, firefly luciferase activity of 12 μl of the Shh-L2 cells lysate was measured using Luciferase Assay Kit (Promega) and galactosidase activity was quantified using Galacto-LightPlus kit (Tropix, Bedford Mass., USA) according to the manufacturer's instructions. Chemiluminicence was measured using Ascent FL Fluoroscan (Thermo Electron Corporation, Waltham Mass., USA) according to the manufacturer's instructions.
We cotransfected the constructs together with GLI-expressing plasmids (or respective empty vector) into Shh-L2 cells and assessed their effect on GLI-dependent firefly luciferase activity. The obtained data was normalized with β-galactosidase values. […] It was able to stimulate the luciferase activity 3.8 times and enhanced the transcriptional activity of over expressed GLI1 and GLI2 approximately 2 and 3.2 times, respectively. The potency of STK36 in the assay was much lower.
In order to examine if the kinase activity of ULK3 is required for the luciferase reporter activation we tested the supposed kinase-deficient variants of ULK3, ULK3(K44R) and ULK3(K139R) in the same assay. […] We also tested the effect of ULK3 and the mutants on the luciferase reporter when the SHH pathway was activated by cotransfection with pShhN (plasmid expressing biologically active part of SHH).

ULK3 = test: In vitro kinase assay, autophosphorylation; type: biochemical, human; conditions: FLAG-tagged protein immunopurified from HEK293 cells, γ-P32-ATP
Protocol: HEK293 cells were transfected with 13.5 μg of FLAG-tagged constructs expressed GLI1, GLI2, GLI3, ULK3, ULK3(K44R), ULK3(K139R) or FLAG-CMV-4 empty vector on 10 cm plates. The cells were lysed with 0.5 ml of Lysis Buffer (50 mM Tris HCl, pH 7.4, 150 mM NaCl, 1 mM EDTA, 1% Triton X-100) containing protease inhibitor cocktail (PIC) (Roche Applied Science). The lysates were centrifuged for 15 min at 4° C. and 15000 g, and the supernatants were used for immunoprecipitation (IP). IP was performed using anti-FLAG-M2 affinity gel (Sigma-Aldrich) in batch format according to the manufacture's instructions. Immune complexes were washed three times with 500 μl of Kinase Buffer (KB) (50 mM HEPES, pH 7.4, 20 mM MgCl2, 25 μM ATP) and resuspended in 12.5 μl of KB. One fifth of the immuno-complexes was subjected to WB and the rest was used for the kinase assay.
Kinase reactions were carried out in KB in a total volume of 20 μl of in the presence of 1 μCi of [γ-^32P]ATP per reaction. We used 1 μl of the immunoprecipitated ULK3, ULK3(K44R) or ULK3(K139R) mixed with 5 μl of the GLI-M2 immunocomplexes or 5 μl of bacterially expressed and purified His-GLI1 fragments. Kinase reactions were held at 30° C. for 30 min and terminated by adding of 5 μl of 4× Laemmli Sample Buffer. Proteins were resolved by SDS-PAGE. The gel was dried at 80° C. for 2 h, and autoradiography was performed using Bio-Rad Personal Molecular Imager FX.
To test if ULK3 has an autophosphorylation activity, we expressed FLAG-tagged wild-type ULK3 and mutants ULK3(K44R) and ULK3(K139R) in HEK293 cells, immunopurified and subjected to in vitro kinase assay in the presence of γ-P^32-ATP.

Row | autophosphorylation activity (ULK3) | Molecule | enhancement of transcriptional activity of overexpressed GLI1 [1] | enhancement of transcriptional activity of overexpressed GLI2 [1] | induction of luciferase activity with activated SHH pathway ([1]; cotransfection with pShhN, Shh-L2 cells) | stimulation of GLI-dependent luciferase activity ([1]; kinase construct alone, Shh-L2 cells, normalized with β-galactosidase)
1 | strong autophosphorylation activity | ULK3: human serine/threonine kinase, 472 amino acids (SEQ ID NO: 1), overexpressed from cloned cDNA or immunopurified FLAG-tagged (protein, listed as Homo sapiens, PEPTIDE (1)..(472) ULK3) MAGPGWGPPRLDGFILTERLGSGTYATVYKAYAKKDTREVVAIKCVAKKSLNKASVENLLTEIEILKGIRHPHIVQLKDFQWDSDNIYLIMEFCAGGDLSRFIHTRRILPEKVARVFMQQLASALQFLHERNISHLDLKPQNILLSSLEKPHLKLADFGFAQHMSPWDEKHVLRGSPLYMAPEMVCQRQYDARVDLWSMGVILYEALFGQPPFASRSFSELEEKIRSNRVIELPLRPLLSRDCRDLLQRLLERDPSRRISFQDFFAHPWVDLEHMPSGESLGRATALVVQAVKKDQEGDSAAALSLYCKALDFFVPALHYEVDAQRKEAIKAKVGQYVSRAEELKAIVSSSNQALLRQGTSARDLLREMARDKPRLLAALEVASAAMAKEEAAGGEQDALDLYQHSLGELLLLLAAEPPGRRRELLHTEVQNLMARAEYLKEQVKMRESRWEADTLDKEGLSESVRSSCTLQ | approximately 2 times | ~3.2 times | approximately 4.1 times | 3.8 times
2 | almost completely absent | ULK3(K139R): kinase-deficient ULK3 mutant with Lysine at position 139 mutated to Arginine (SEQ ID NO:7) (protein, MUTAGEN (1)..(472) mutated ULK3 protein ULK3 (K139R)) MAGPGWGPPRLDGFILTERLGSGTYATVYKAYAKKDTREVVAIKCVAKKSLNKASVENLLTEIEILKGIRHPHIVQLKDFQWDSDNIYLIMEFCAGGDLSRFIHTRRILPEKVARVFMQQLASALQFLHERNISHLDLRPQNILLSSLEKPHLKLADFGFAQHMSPWDEKHVLRGSPLYMAPEMVCQRQYDARVDLWSMGVILYEALFGQPPFASRSFSELEEKIRSNRVIELPLRPLLSRDCRDLLQRLLERDPSRRISFQDFFAHPWVDLEHMPSGESLGRATALVVQAVKKDQEGDSAAALSLYCKALDFFVPALHYEVDAQRKEAIKAKVGQYVSRAEELKAIVSSSNQALLRQGTSARDLLREMARDKPRLLAALEVASAAMAKEEAAGGEQDALDLYQHSLGELLLLLAAEPPGRRRELLHTEVQNLMARAEYLKEQVKMRESRWEADTLDKEGLSESVRSSCTLQ | neither of the mutants had an effect | completely inactive | – | –

Source: patent publication US20130040894A1, “INHIBITION OR ACTIVATION OF SERINE/THREONINE ULK3 KINASE ACTIVITY” (TALLINN UNIVERSITY OF TECHNOLOGY, priority 2009, published 2013)
